Experiment: yeast display, Sf9 membrane polyspecificity reagent, FACS + sequencing; frameworks hold sequencing errors
Outline: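 A synthetic nanobody library was expressed on Saccharomyces cerevisiae BJ5465 by galactose induction for 36–48 hours. The library was stained for 1 hour at 4 °C with 10% biotinylated, detergent-solubilized Sf9 membrane reagent and enriched with streptavidin microbeads before FACS. Low and high (top ~1%) gates were set on anti-HA fluorescence for expression and streptavidin fluorescence for reagent binding, and each polyreactivity label reflects the gate of origin.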

Row | Sequence | polyreactivity (PSR sort gate)
1 | QVQLEESGGGLVQAGGSLRLSCAASGIIFIDYAMGWYRQAPGKERELVAAISNGGSTYYADSVKGSFTISRDNAKNTVYLQMNSLKPEDTEVYYCAAGGALASHWSKKLYDYWGQGTQVTVSS | low polyreactivity
2 | QVQLEESGGGLVQAGGSLRLSCAASGIIFPVYAMGWYRQAPGKERELVAAITRSGGITYYADSVKGRFTISRDNEKNTVYLQMNSLKPEDTAVYDCAASVYSLSRRSWMDYWGQGTQVTVSS | low polyreactivity
3 | QVQLEESGGGLVQAGGSLRLSCAASGIIFQRNDMGWYRQAPGKERELVANIRDGGITYADSVKGRFTISRDNAKNTVYLQMNSLKPEDTAVYYCARDDTSPGYCDQSSNAAYYYWGQGTQVTVSS | low polyreactivity
4 | QVQLEESGGGLVQAGGSLRLSCAASGIIFRGNAMGWYIQAPGKERELFAAIRFSGGSTYYADSVKGRFTISRDNAKNTVYLQMNSLKPEDTAVYYCAATRRRYGSTTSEYYYWGQGTQVTVSS | high polyreactivity
5 | QVQLEESGGGLVQAGGSLRLSCAASGIIFTTYDMGWYRQATGKERELVAAISSSTTNTYYADSVKGRFTISRDNAKNTVYLQMNSLKPEDTAVYYCAAPYKRNAGFDYWGQGTQVTVSS | low polyreactivity
6 | QVQLEESGGGLVQAGGSLRLSCAASGIIFWEYAMGWYRQAPGKERELVAAINARGTRTYYADSVKGRFSISRDNAKNTVYLQMNSLKPEDTAVYYCAADRYGWTRYDSWGQGTQVTVSS | high polyreactivity
7 | QVQLEESGGGLVQAGGSLRLSCAASGIIIKYYAMGWYSQAPGKESELVAAISSSGGKTYYADSVKGRFTISRDNAKNTVYLQMKSLKPEDTGVDYCAAQRYVRYKYDYWGQGTQVTVSS | high polyreactivity
8 | QVQLEESGGGLVQAGGSLRLSCAASGITFGFYAMGWYRQAPGKERELVASITWRGGSTYYADSVKGRFTISRVNAKNTVYLHMNSLKPEDTAVYYCAAEQYVFRPRAQEITSYDYWGQGTQVTVSS | high polyreactivity
9 | QVQLEESGGGLVQAGGSLRLSCAASGITFISYAMGWYRQAPGKERELVAVISKSGGRTYYADSVKGRFTISRDNAKNTVYLQMNSLKPEDTAVYYCAATKRYASGMYYWGQGTQVTVSS | high polyreactivity
10 | QVQLEESGGGLVQAGGSLRLSCAASGITFVTYAMGWYRQAPGKERELVAAISRSGGRTYYADSVKGRFTISRDNAKNTVYLQMNSLKPDDTAVYYCAAERKNKYDYWVQGTQVTVSS | high polyreactivity
11 | QVQLEESGGGLVQAGGSLRLSCAASGLIFPVYAMGWYRQAPGKERELVASISWNGGSTYYADSVKGRFTISRDNAKNTVYLQMNSLKPEDTAVYYCNKYPVSLWYYSKDYTYDYWGQGTQVTVSS | low polyreactivity
12 | QVQLEESGGGLVQAGGSLRLSCAASGLISSPNAMGWYRQAPGKERELVAAITRRGGSTYYADSVKGRFTISRDNAMNTVYLQINSLKPEDTAVYYCAKATGRPGYDYWGQGTQVTVSS | high polyreactivity
13 | QVQLEESGGGLVQAGGSLRLSCAASGLTFDPYAMGWSRQAPGKERELVAVITSRTGSTYYADSVKGRFTISRDNAKNTVYLQMNSLKPEDTAVYYCAAEIYYYGMYGYDYWGQGTQVTVSS | high polyreactivity
14 | QVQLEESGGGLVQAGGSLRLSCAASGLTFRIYAMGWYRQAPGKERELVATISTRGGSTYYADSVKGRFTISRDNPKNTVYLQMNSLQPEDTAVYYCAASLGWFSGSLYNYWGQGTQVTVSS | high polyreactivity
15 | QVQLEESGGGLVQAGGSLRLSCAASGLTFVRYAMGWYRQAPGKERELVAAISSGGSTNYADSVKGRVTISRDNAKNTVYLQMNSLKPEDTAVYYCAARPPRTYWRYQSDYWGQGTQVTVSS | high polyreactivity
16 | QVQLEESGGGLVQAGGSLRLSCAASGRIFAYYAMGLYRQAPGKERELVAAITTNGGGTYYADSVKGRFTISRDNAKNTVYLQMNSLKPEDTAVYYCNAVKQRSSFYDYWGQGTQVTVSS | low polyreactivity
17 | QVQLEESGGGLVQAGGSLRLSCAASGRIFGAYAMGWYRQAPGKERELVAAITSRGGNTYYADSVKGRFTISRDNAKNTVYLQMNSLKPEDTAVYYCAARHDKRRQYYVGESAFDYWGQGTQVTVSS | low polyreactivity
18 | QVQLEESGGGLVQAGGSLRLSCAASGRIFGWYALGWTRQAAGKESELVAAISNDGSTNYADSVKGRFTSSRDNAKNTVYLQLNSVKPEDTAVSYCNARVYSSRARWGTYDYWGQGNQVTVSS | high polyreactivity
19 | QVQLEESGGGLVQAGGSLRLSCAASGRIFKGYAMGWYRQATGKETEVVAAISSRGGNTYYADSVKGRFTISRDNAKNTVYLQMNSLKPVDTAVYYCAAVYKWSRYGGYNYWGQGTQVTVSS | low polyreactivity
20 | QVQLEESGGGLVQAGGSLRLSCAASGRIFRSYAMGWYRQAPGKERELVAAISQRGGRTYYADSVKGRFTISRDNAKNTVYLQMNSLKPEDTAVYYCAKSNPKLGYYYLQGDLYDYWGQGTQVTVSS | low polyreactivity
21 | QVQLEESGGGLVQAGGSLRLSCAASGRIFRYYAMGWSRQAPGKERELVAGISRGTSTYYADSVKGRFTISRDNAKNTVYLQMNSLKPEDTAVYYCAKGSIQYFRPYTFYSWGQGTQVTVSS | high polyreactivity
22 | QVQLEESGGGLVQAGGSLRLSCAASGRIFSRYAMGGYRQAPGKERELVAAITQSGTSTYYADSVKGRFTISRDNAKNTVYLQMNSLKPEDTAVYYCNAYRQYRYDYWGQGTQVTVSS | low polyreactivity

Row | Sequence | polyreactivity (PSR sort gate)
23 | QVQLEESGGGLVQAGGSLRLSCAASGRIFVNYDMGSDRQAPGKERELVADISISGSTDYADSVKGRFTISRDNAKNTVYLQMNSLKPEDTAVYYCATSFYVSDYYVPYEMGYWGQGTQVTVSS | low polyreactivity
24 | QVQLEESGGGLVQAGGSLRLSCAASGRIFVSNAMGWYRQAPGKERELVAAITDSGGSTYYADSVKGRFTISRDNAKNTVYLQMNSLKPEDTAVYYCATRTLFRYPNYGNNLWGYDYWGLGTQVTVSS | low polyreactivity
25 | QVQLEESGGGLVQAGGSLRLSCAASGRIFYQNAMGWYRQAPGKERQLVADIASGGSTSYADSVKGRFTISRDNAKNTVYIQMNSLKPEDTAVYYCATAVLYGDGWYYYWGQGTQVTVSS | low polyreactivity
26 | QVQLEESGGGLVQAGGSLRLSCAASGRIIGGYAMGWYRQAPGKERELVAGIRGGTSTYYADSVKGRFTISRDNAKNTVYLQMNSQKPEDTAVYYCNARSLGRKYDYWGQGTQVTVSS | low polyreactivity
27 | QVQLEESGGGLVQAGGSLRLSCAASGRIIQQYAMGWSRQAPGKDRELVAAISRGGSTYYADSEKGRFTISRDNAKNTVYLLMYSLKPEDTAVYDCNAGVGFTSAPQKYYYWGEGTQVTVSS | high polyreactivity
28 | QVQLEESGGGLVQAGGSLRLSCAASGRIQYNAMGWYRQAPGKEREFVAAISWSGGTTYYADSVKGRFTISRDNAKNTVYLQMNSLKPEDTAVYYCATPYTHWGQGTQVTVSS | high polyreactivity
29 | QVQLEESGGGLVQAGGSLRLSCAASGRLFYSNPMGWYREAPGKEREVVAAISSGASTYYADSVKGRFTISRDNAKNTVYLQMNSLKPEDTAVYYCAVYRPSSYDYGYWGQGTQVTVSS | low polyreactivity
30 | QVQLEESGGGLVQAGGSLRLSCAASGRNLEVYAMGWNRKAPGKERELVAAIRWSDGNTYYADSVKGRFTISRDIAKNTVYLQMNSLKPEDTAVYYCAARTPGGYDWGQGTQVTVSS | high polyreactivity
31 | QVQLEESGGGLVQAGGSLRLSCAASGRTFDYYAMGWYRQAPGKERELVAAIRLISGNTYYADSVKGRFTISRDNAKNTVYLQMNSLKPEDTAVYYCAAPSDGVPSLYGGMDYWGQGTQVTVSS | low polyreactivity
32 | QVQLEESGGGLVQAGGSLRLSCAASGRTFGLNAMGWYRQAPGKERELVAAITYSGGSTYYADSVKGRCTISRDNAKNTVYLHMNSLKPEDTAVYYCAKEVQTYWYHYYYWGHGTQVTVSS | high polyreactivity
33 | QVQLEESGGGLVQAGGSLRLSCAASGRTFGTYVMGWNRQATGKHRELVAAISRSGGGTYYADSVKGRFTISRDNEKNTVYLQMNSLKPEDTAVYYCADRRVVYRYYWYSAYDYWGQGTQVTVSS | high polyreactivity
34 | QVQLEESGGGLVQAGGSLRLSCAASGRTFKYYSMGWYRPAPGKERELVAAIRSRTGSTYYADSVKGRFTISRDNAKNTVYLQMNSLKPEDTAVYYCAAQPGSYYGPRWYYDDDYWGQGTQVTVSS | high polyreactivity
35 | QVQLEESGGGLVQAGGSLRLSCAASGRTFRSYTMGWYRQAPGKERELGAAISYNGGSTYYADSVNGRFTISRDYAKNTVYLQMNSLKPEDTSVYYCAVYSIYGFYYWGQGTQVTVSS | high polyreactivity
36 | QVQLEESGGGLVQAGGSLRLSCAASGRTFSRYAMGWYRQAPGKERELVAAIRGNSGNTYYADSVKGRFTISRDNAKNTVYLQMNSLKPEDTAVYYCAKPFNIWGQGTQVTVSS | high polyreactivity
37 | QVQLEESGGGLVQAGGSLRLSCAASGRTFTHYAMGWYRQAPGRERELVAGITRSGGITYYADSVKGRFTISRDNANNTVYLQMNSLKPEDTAVYYCNAGFHGLAYFLKPEYDYWGQGTQVTVSS | low polyreactivity
38 | QVQLEESGGGLVQAGGSLRLSCAASGRTFYRYAMGWYRQAPGKERELVAAITWSGGSTYYADSVKGRFTTSRDNAKNTVYLQMNSLKPEDTAVYYCARRLYPYRPTAYDYWGQGTQVTVSS | low polyreactivity
39 | QVQLEESGGGLVQAGGSLRLSCAASGRTFYTNAMGWYRQAPGKERELVAAISGRGSTYYADSVKGRFTISRDNAKNTVYLQMNSLKPEDTAVYYCAALLPGRSSSDYWGQGTLVTVSS | high polyreactivity
40 | QVQLEESGGGLVQAGGSLRLSCAASGRTFYVYTMGWYRQAPRKERELFAGISYSGGSTYYADSVKGRFTISRDTAKKTVYLQKYSLKPEDTAVYYCNAELYFPYFDGKTRHGGYWGQGSQVTVSS | low polyreactivity
41 | QVQLEESGGGLVQAGGSLRLSCAASGRTLSHYAKGWYRKAPGKERELVAAITRSGGSTYYADSVKGRFTISRDNAKNTVYLQMNRLKPEDTAVYYWNKTLYTSYDFWGQGTQVTVSS | low polyreactivity
42 | QVQLEESGGGLVQAGGSLRLSCAASGSIFALYTIGWSRQAPRKERELVAAISSRGGSTYYADSVKGRFTISRDNAKNTVYLQMNSLKPEDTAVYYCNAVVRESAYNFDYWGQGTQVTVSS | high polyreactivity
43 | QVQLEESGGGLVQAGGSLRLSCAASGSIFAVYAMGWYRHAPGKERELVAAIRSGSRTYYADSVKGRFTISRDNAKNTVYLQMNSLKPEDTAVYYCATTYGTPRYDYWGQGTQVTVSS | high polyreactivity

From the nanobody polyreactivity screen of Harvey et al. (2022)
